{"source": "the DeepSol protein solubility set"}
{"experiment": "soluble on expression in E. coli; label from the status in PepcDB or PDB records"}
{"sequence": "MGSDKIHHHHHHMERIDEILSQLTTEEKVKLVVGVGLPGLFGNPHSRVAGAAGETHPVPRLGIPAFVLADGPAGLRINPTRENDENTYYTTAFPVEIMLASTWNRDLLEEVGKAMGEEVREYGVDVLLAPAMNIHRNPLCGRNFEYYSEDPVLSGEMASAFVKGVQSQGVGACIKHFVANNQETNRMVVDTIVSERALREIYLKGFEIAVKKARPWTVMSAYNKLNGKYCSQNEWLLKKVLREEWGFDGFVMSDWYAGDNPVEQLKAGNDMIMPGKAYQVNTERRDEIEEIMEALKEGKLSEEVLDECVRNILKVLVNAPSFKGYRYSNKPDLESHAEVAYEAGAEGVVLLENNGVLPFDENTHVAVFGTGQIETIKGGTGSGDTHPRYTISILEGIKERNMKFDEELASTYEEYIKKMRETEEYKPRTDSWGTVIKPKLPENFLSEKEIKKAAKKNDVAVVVISRISGEGYDRKPVKGDFYLSDDELELIKTVSKEFHDQGKKVVVLLNIGSPIEVASWRDLVDGILLVWQAGQEMGRIVADVLVGKINPSGKLPTTFPKDYSDVPSWTFPGEPKDNPQRVVYEEDIYVGYRYYDTFGVEPAYEFGYGLSYTKFEYKDLKIAIDGETLRVSYTITNTGDRAGKEVSQVYIKAPKGKIDKPFQELKAFHKTKLLNPGESEEISLEIPLRDLASFDGKEWVVESGEYEVRVGASSRDIRLRDIFLVEGEKRFKP", "soluble on expression in E. coli": "not soluble"}
{"sequence": "MGSDKIHHHHHHIRPIQRGKANAKVEFGAKIDCSLSEGVVDIERFDFTAFSEGQDFTETLDHYYDLHGHYPDEVLADTLYRNRENLKLCKDLGIRVCGPKLGRHPKNVDAAKRREDTDAENRRGTIERRFAFMKGTLGLDLVNTRTAESLAVKIDAAIVLSNALTLLRVFAIPILILAKFEGEAYRIRYKFTTRVEDMLA", "soluble on expression in E. coli": "not soluble"}
{"sequence": "MAHHHHHHMKIRTVLRKRIRLHGTNCPGFTCHHNRFSRLLKTWVVVLPPKQLAVYKNGVQLLLQLVTEHLTGDGDVLLQLRYQHMIAKEMLSGRHNTASFRVTYGFLTFDGVNPKVCAMNLLCGNPLIVKHSACLQCTHPSFVRVLNFCVTLKKRRTIVSKPQGRPTKKQLKVAPQHR", "soluble on expression in E. coli": "not soluble"}
{"sequence": "MANEPQKSDDNGQAAEAVVTDDEIVLQDQQLKTIEDEQKSVPLVATLAPFSILCAEYDNETSAAFLSKATELSEVYGEIRYIRGDGNCFYRAILVGLIEIMLKDRARLEKFIASSRDWTRTLVELGFPDWTCTDFCDFFIEFLEKIHSGVHTEEAVYTILNDDGSANYILMFFRLITSAFLKQNSEEYAPFIDEGMTVAQYCEQEIEPMWKDADHLAINSLIKAAGTRVRIEYMDRTAAPNGGWHYDIPSDDQQIAPEITLLYRPGHYDVIYKKDSTEASEIEN", "soluble on expression in E. coli": "not soluble"}
{"sequence": "SMSKRTFSTVLPQIDTTGQLFVQTRKGQEVLIKVKHFMKQHILPAEKEVTEFYVQNENSVDKWGKPLVIDKLKEMAKVEGLWNLFLPAVSGLSHVDYALIAEETGKCFFAPDVFNCQAPDTGNMEVLHLYGSEEQKKQWLEPLLQGNITSCFCMTEPDVASSDATNIECSIQRDEDSYVINGKKWWSSGAGNPKCKIAIVLGRTQNTSLSRHKQHSMILVPMNTPGVKIIRPLSVFGYTDNFHGGHFEIHFNQVRVPATNLILGEGRGFEISQGRLGPGRIHHCMRTVGLAERALQIMCERATQRIAFKKKLYAHEVVAHWIAESRIAIEKIRLLTLKAAHSMDTLGSAGAKKEIAMIKVAAPRAVSKIVDWAIQVCGGAGVSQDYPLANMYAITRVLRLADGPDEVHLSAIATMELRDQAKRLTAKI", "soluble on expression in E. coli": "soluble"}
{"sequence": "MEINSREVYVFTPKGDVMSLPQGATPVDFAYAVHTEVGHRCIGARVNGKLVTLDTKLNNGDVIDILTSNAPDAGPSRLEHHHHHH", "soluble on expression in E. coli": "not soluble"}
{"sequence": "MAHHHHHHMQLPRKRGTQRRRAHRRNWRDCTSLCTMRGGAMRWNFRTAWSERKQGTGMGVHEGKPEQSWTYKKADDAIKKNDAVQQFGAAPPVLMVLASDKGWPYSWNTIQDLPKDFFVNCEVDRAWQIVKGDLTAWFSPHGGTDFTPKRRVLIGTPGIGKSVAAGSYLLY", "soluble on expression in E. coli": "not soluble"}
{"sequence": "MIDHALALTHIDERGAARMVDVSEKPVTLRVAKASGLVIMKPSTLRMISDGAAAKGDVMAAARIAGIAAAKRTGDLIPLCHPLGLDAVSVTITPCEPDRVKILATTTTLGRTGVEMEALTAVSVAALTIYDMCKAVDRAMEISQIVLQEKSGGRSGVYRRSASDLACQSR", "soluble on expression in E. coli": "soluble"}
{"sequence": "MSLKNPRIVVVDDSPFSVSILTDMLQRNGFEVVGSASNLNEVKKAVTELNPNLVTMDMVLADTDGLECTKIIHQINPEIRVIAISSMMDDEILAKAKKNNISAYIQKPIDEEELVLAINRISSDDDLYSELKDRYFDIFKQAFSYAFNKFIKEVPNFVEKDEHTVEHVEKGISIVMGIIGKYCGRLILNISYETADKFVESVLNRPAKDLQEILNVVAEFANIVGGNACSMINRENKIFGMRIAPPTTIYGDSINISRNSLDTMNFFTVNVTAGEISVNIGFNKGAVEWMSNEGHHHHHH", "soluble on expression in E. coli": "soluble"}
{"sequence": "SLIDNPHAQDYWPNRGQMDVQGLAVKYTEAGRAVLSDISFSVEGGLSMGLLGRTGSGKSTLLSALLRLASTDGEISIDGISWNSVPLEKWRKAFGVVPQKVFILTGTFRMNLDPHGRYSDEELWRVADQVGLKSVIEQFPDRLDFQLENGGSVLSHGHKQLMCLARSILSKARILLLDEPSAYLDTITLQVLRKTLKHAFSDCTVILSEHKVEPLLECDSFLVIEGSSVKSYDSIQKLLNEMSDLKQAVSAAD", "soluble on expression in E. coli": "soluble"}
{"sequence": "MKPVKAKCEVCEHMFRVQMLTARLSNRVDKHYFICPSCKTEFISYYSNREMRQLQKEISNLYKGFRTCYTKEQAKVIQAKIDKKDLEFKWLRDILRTEIENNLPN", "soluble on expression in E. coli": "not soluble"}
{"sequence": "MGSDKIHHHHHHMNGGKPGVERDRREALLALAAALRPELHRYCARLMGSVIDGEDVVQDTFARAFVALDELCAVPQLRPWLFRIAHNRALDLLRSRATRVAEPIEAALEIVDDSKADAVETLMRKEAIETAVSRFAELPVVQRSVIILKDVLDEPLAEIAALLGISVDAVKAHLSRGRARLREINARTDPFPDARIASANVVRYINLFNQRDWDGLRALLAEDVRLQQSMHPPRSGAADVGMFFTIYAKSEGLWLKPAWVEGREVIAVFEHRAAPKPTHFMWLEWREGRISFIRDYRYVGYVADDARLVLASDVRSSGHGTKL", "soluble on expression in E. coli": "not soluble"}
{"sequence": "MSLLTVVQDQQSSNDDSGVGRSLLDEIVRDGARQMLAAALAAEVAAYIEQFAEHLDEHGRRLVVRNGYHHERDVLTAAGAVTVTAPRVNDRRVDAETGERQRFSSAILPAWSRKSPQMTEVLPLLYLHGLSSGDFSAALEQFLGTGAGLSASKITRLTAQWQDEAKAFADRDLSGTDFVYLWVDGIHLKVRLEQQKLCLLVMIGVRADGRKELVALTDGFRESTESWADLLRSCRRRGMTAPVLAVGDEALGFWKALREVFPDTREQRCWFHKQANVLAALPKSAHPGATAAMREIYNAEDIDKAQVAIKAFEVDYGAKYPKAVAKIVDDADVLLEFYRYPAEHWIHLRTTNPIESTFATVRLRTKVTKGPGSRAAGIAMAYKLIDAAQARWRAVNAPHLVALVRAGAVFHKGKLLEREGHHHHHH", "soluble on expression in E. coli": "not soluble"}
{"sequence": "AEEHEHHHHDEEHAHHHHHEGSEVDEYGISTFVYYRRPAFDIHKFDRFVSTQWSRNIIRAKGVCYFSNNRDMSFLFEQAGVQKKLKEAGLWYATAPEEELIEVIRQEPGLLRDWDDKYGDRMQKIVFIGRHLDKEELIRELDECLE", "soluble on expression in E. coli": "not soluble"}
{"sequence": "MGSDKIHHHHHHMRIPEEIIKLVDTPEFQRLRGVKQLGLANLVYPGANHTRFEHSLGTWYLARKLSLELQLPREDSLLIQLAALLHDIGHGPFSHTFERIYRDRLDFHDHMEVSRRIVEGKIQICEDGGELPDIISSLGYEPREVGELIVGKHKKRYLRMIIHGDIDVDQLDYLTRDAHYTGVAHGIIDLERLLTVMRVFNGELVIDEKGIEAVEGMLVARSLMYSRVYFHRTVKIAEGMLIRAVEFALDEGELEDFWKMTDDRLVIELEDLGDFPGDIIRRIRRRKLFKAAVIIGPEDLTAEEKKSLTTLYRSQKKRKKIESELAEIVGAREGEVMVELSIPELILSEPRLKQVEVNVLLSGGKVEPIGKVTPLASAIKRRQTPRWILLVATLPEYMEGVKRVWREVILE", "soluble on expression in E. coli": "not soluble"}
{"sequence": "MGSDKIHHHHHHMFKGIIAALWDMDSIGEIEPDVVFLLKSDILNLKFHLKILKDRGKTVFVDMDFVNGLGEGEEAILFVKKAGADGIITIKPKNYVVAKKNGIPAVLRFFALDSKAVERGIEQIETLGVDVVEVLPGAVAPKVARKIPGRTVIAAGLVETEEEAREILKHVSAISTSSRILWKMKFLP", "soluble on expression in E. coli": "soluble"}
{"sequence": "MAHKSKSPYLMYPEKEPFPILNKHSHYDHLFEEMYELEEKGEILVFRITEEYRPKYVYTRTGRIKVIPTNKLWHHKSCGQCGNIPGYPASIFWFMNKFGLDYLNEPHQTSCTAWNYHGSGTSNPVALAAVWLRNMHQAWKTGYYPLIHCGTSFGSYKETREQLIFNKELREAVKPILKKLGRLTEDGRIVIPQEIVHYSEWVHAMRDGNSRPLRKRKESPKE", "soluble on expression in E. coli": "not soluble"}
{"sequence": "MSVKKKTQVRTGKMVRELMLADEDVNASLIMVYSENGVNAEIKIEGLTPKCNEELFLSGNVDWNKSVIYKIVDFTGNAEVGKVTLTAMNKNNVSLEIERVMWSKENKEAAEQEETQVEAAPKKEVVVEAPKAITPAPKPVTRVETPAMAPKPTPVPTPKPVSVEAAVELVTPAPVKKAVPTPVTKQETAPVAPAKPKQPALTETNSKLQENYVKLVKKTIEVCQDYELGIDIDDSIESLKEELQSQGISVTFDKEIMDVVNRLRSLQDKGIKVEKVLNLL", "soluble on expression in E. coli": "not soluble"}
{"sequence": "MGSDKIHHHHHHMINAKNIRFSYPRQRSLFESLNLDLPKGSITGLLGRNGEGKTTLLKLLCGQLLRKDGNLTVLTEDPRHRSVKFLSKVFLLQEEVTCPNVSIRDYFRMITPFYPSYSPEVAQEIIIAFDLNWDMKLGKVSQGQKKKAVIALALSLRTPLLLMDEPTNGLDIPSKSAFRRLMARYITEEQTVIISTHQVRDLEQIIDRIVMMDKNAIVCNRSVAELSEQFAFRQVVPGDKPIYKEGSTMGEVGVYENTTGEETPFSMELFFNGMIAEREVFNRVLNR", "soluble on expression in E. coli": "not soluble"}
{"sequence": "MMDVSGVGFPSKVPWKKMSAEELENQYCPSRWVVRLGAEEALRTYSQIGIEATTRARATRKSLLHVPYGDGEGEKVDIYFPDESSEALPFFLFFHGGYWQSGSKDESAFMVHPLTAQGVAVVIVAYGIAPKGTLDHMVDQVTRSVAFVQKRYPSNKGIYLCGHSAGAHLAAMMLLADWTKHGVTPNLRGFFLVSGVFDLEPIVYTSQNVALQLTLEDAQRNNPQLKVAQAQPVDPTCRVLVVVGQFDSPEFHRQSWEFYQVLPVQTLCQGEWKASFEELHDVDHFEIVENLTQKDNVLTQIILKTIFQ", "soluble on expression in E. coli": "soluble"}
{"sequence": "MANDGYFEPTQELSDETRDMHRAIISLREELEAVDLYNQRVNACKDKELKAILAHNRDEEKEHAAMLLEWIRRCDPAFDKELKDYLFTNKPIAHE", "soluble on expression in E. coli": "soluble"}
{"sequence": "SQSLGDRQRDNEKIDKMQQILRSVNAGIEDKGKVIARYTDVIKQELLINQDGTVAKTFEGEQLAQNEAFTLNTRNAFKSAANDPSISLPLYIAEIEGQKK", "soluble on expression in E. coli": "not soluble"}
